This note sets out measurements from patent US20190382488A1 (IMAGINAB, published 2019).

Assay [1] addresses T1, recombinant human CD8 (rhCD8) (human, UniProt P01732 22-182).
T1 construct: Soluble purified recombinant protein; also called purified recombinant human CD8 protein; soluble CD8
Description: SPR (summary table). An excerpt:
(§1) Surface plasma resonance (SPR) was used to determine the binding affinity for all the IAb_Mb_CD8 variants to recombinant human CD8 (Table 8.0). The minibody protein in the supernatant was captured on to the BIAcore chip using an anti-human IgG (Fc-specific) antibody. The amount of minibody captured on the chip was normalized to enable a direct comparison of binding affinity between the variants as a kinetic “scouting” experiment to rank affinities. The rhCD8 protein was passed over the captured minibody protein to measure binding.
(§2) Table 8.0 summarizes the measured association (ka), dissociation (kd), and kD constants for the IAb_Mb_CD8 variants binding to recombinant hCD8. The variants were captured on a BIAcore chip using anti-human Fc-specific IgG antibody.

The target in assay [2] is T2, cell-surface human CD8 (human, UniProt P01732 22-235).
T2 construct: the cell is named under assay; also called cellular human CD8; CD8 on PC3-CD8 cells
T2 sequence (P01732 22-235 limits assumed): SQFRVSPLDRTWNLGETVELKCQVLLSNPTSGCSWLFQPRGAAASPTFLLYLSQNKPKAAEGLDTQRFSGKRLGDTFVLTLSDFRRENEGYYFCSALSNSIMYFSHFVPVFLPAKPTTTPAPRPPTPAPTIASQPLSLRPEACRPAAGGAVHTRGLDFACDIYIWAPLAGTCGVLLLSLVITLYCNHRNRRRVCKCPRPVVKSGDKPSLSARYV
Description: flow cytometry, HPB-ALL cells. As to the method: (§3) Flow cytometry analysis of minibodies binding to cell-surface human CD8 on HPB-ALL cells was performed. Cells were stained with respective concentrations of minibody, washed, and then stained with a secondary anti-human IgG (Fc-specific) APC-conjugated antibody. Analysis was performed with 10,000 events/point in triplicate for each concentration. The results are shown in graph format in FIG. 29A. The graph presents the normalized mean fluorescence intensity (MFI) vs. the log of the concentration (nM). Error bars represent the standard error. The data indicates an EC₅₀ of 0.15 nM and 0.19 nM.
as §3, with “analysis of IgG2 minibodies binding” for “analysis of minibodies binding”, “in FIG. 29E. The graph” for “in FIG. 29A. The graph”, “EC₅₀ of 0.1 nM, 0.13 nM, and 0.08” for “EC₅₀ of 0.15 nM and 0.19”, “nM, and 0.08 nM.” for “nM and 0.19 nM.”

The target of assay [3] is T2, cell-surface human CD8. Description: flow cytometry, primary human CD8+ T cells. As to the method: as §3, with “primary human CD8+ T” for “HPB-ALL”, “29B.” for “29A.”, “0.1” for “0.15”, “0.26” for “0.19”
In general terms: A flow cytometer gives signals particle by particle.

In assay [4] the target is T2, cell-surface human CD8. In words: flow cytometry, PC3 cells overexpressing CD8.
The target of assay [5] is T2, cell-surface human CD8. In words: flow cytometry on HPB-ALL cells, anti-human IgG (Fc-specific)-APC. As to the method: as §3
For assay [6], the target named is T2, cell-surface human CD8. The assay is described as above. The source holds these as a separate data set.
Assay [7] has as its target T2, cell-surface human CD8. The description is as above. As to the method: as §3, with “analysis of IgG2 minibodies binding” for “analysis of minibodies binding”, “in FIG. 29E. The graph” for “in FIG. 29A. The graph”, “EC₅₀ of 0.1 nM, 0.13 nM, and 0.08” for “EC₅₀ of 0.15 nM and 0.19”, “nM, and 0.08 nM.” for “nM and 0.19 nM.”
This is another data set of the same source.

The target of assay [8] is T1, recombinant human CD8 (rhCD8). Description: SPR (BIAcore), minibody captured via anti-human IgG Fc, hCD8 analyte at 50 nM.
From the text: as §1, §2

Assay [9] deals with T2, cell-surface human CD8. Description: flow cytometry on primary human CD8+ T cells, anti-human IgG (Fc-specific)-APC. Here is the method: as §3, with “primary human CD8+ T” for “HPB-ALL”, “29B.” for “29A.”, “0.1” for “0.15”, “0.26” for “0.19”
The target in assay [10] is T2, cell-surface human CD8. In words: flow cytometry on PC3 cells overexpressing CD8, anti-human IgG (Fc-specific)-APC. Here is the method:
Flow cytometry analysis of minibody (+/−lysine conjugation to Desferoxamine) binding to PC3 cells overexpressing CD8 was performed. Cells were stained with respective concentrations of minibody, washed, and then stained with a secondary anti-human IgG (Fc-specific) APC-conjugated antibody. Analysis was performed with 10,000 events/point in triplicate for each concentration. The results are shown in graph format in FIG. 29D. The graph presents the mean fluorescence intensity (MFI) vs. the log of the concentration (nM). Error bars represent the standard error. The data indicates an EC₅₀ of 0.64 nM and 0.83 nM.

The target in assay [11] is T1, recombinant human CD8 (rhCD8). Description: SPR (summary table); Table 9 summary.
Assay [12] addresses T2, cell-surface human CD8. Description: flow cytometry, HPB-ALL cells. As to the method: (§4) Flow cytometry analysis of the OKT8 mAbconstruct binding to cell-surface human CD8 on HPB-ALL cells was performed. Cells were stained with respective concentrations of antibody, washed, and then stained with a secondary anti-mouse IgG (Fc-specific) APC-conjugated antibody. Analysis was performed with 10,000 events/point in triplicate for each concentration. The results are shown in graph format in FIG. 28. The graph presents the mean fluorescence intensity (MFI) vs. the log of the concentration (nM). Error bars represent the standard error. The data indicates an EC₅₀ of 0.22 nM.
The source holds these as a separate data set.

For assay [13], the target named is T2, cell-surface human CD8. Description: flow cytometry, HPB-ALL cells; Table 9 summary, HPB-ALL cells. As to the method: as §4
In assay [14] the target is T1, recombinant human CD8 (rhCD8). In words: SPR (BIAcore), antibody as captured ligand, hCD8 analyte at 50 nM. On the technique in general: SPR reads the build-up and loss of mass on a sensor chip optically.
Assay [15] addresses T2, cell-surface human CD8. In words: flow cytometry on HPB-ALL cells, anti-mouse IgG (Fc-specific)-APC. Here is the method: as §4
In assay [16] the target is T1, recombinant human CD8 (rhCD8). Description: ELISA on plate-coated rhCD8, transfection supernatant, HRP goat anti-human IgG (Fc-specific), TMB, absorbance 405 nm. Here is the method:
96 well plates were coated with rhCD8 antigen and incubated with supernatants obtained from the transient transfection. Binding was detected with HRP-conjugated goat anti-human (Fc-specific) IgG and TMB substrate. The absorbance measured at 405 nm. Dilutions were done in triplicate. Data is shown as mean of relative absorbance.

As usually defined, the Kd is the equilibrium constant for the complex coming apart. One may read the EC50 as the concentration needed to bring the measured effect to its halfway point. High values mean weaker potency, low ones greater potency. For orientation: koff means the first-order rate constant of dissociation. What is called kon is the second-order rate constant of association. Broadly, the EC50 (read off the curve) is the midpoint of the concentration-response curve.

T1 sequence (P01732 22-182 limits assumed): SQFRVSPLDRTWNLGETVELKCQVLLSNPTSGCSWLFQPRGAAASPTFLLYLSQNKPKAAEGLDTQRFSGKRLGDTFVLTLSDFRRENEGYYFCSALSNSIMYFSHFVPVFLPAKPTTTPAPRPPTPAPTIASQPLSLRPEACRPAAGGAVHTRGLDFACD

B1: IAb_Mb1b_CD8 (other)
chain: DVQITQSPSSLSASVGDRVTITCRTSRSISQYLAWYQQKPGKVPKLLIYSGSTLQSGVPSRFSGSGSGTDFTLTISSLQPEDVATYYCQQHNENPLTFGGGTKVEIKGSTSGGGSGGGSGGGGSSEVQLVESGGGLVQPGGSLRLSCAASGFNIKDTYIHFVRQAPGKGLEWIGRIDPANDNTLYASKFQGKATISADTSKNTAYLQMNSLRAEDTAVYYCGRGYGYYVFDHWGQGTLVTVSSEPKSCDKTHTCPPCGGGSSGGGSGGQPREPQVYTLPPSRDELTKNQVSLTCLVKGFYPSDIAVEWESNGQPENNYKTTPPVLDSDGSFFLYSKLTVDKSRWQQGNVFSCSVMHEALHNHYTQKSLSLSPGK
notes: also called IAb M1b CD8
In the case of B1, the Kd in [1] and in [8] was 1.9 nM throughout. In addition, the EC50 in the assay with cell-surface human CD8 [2] is 0.1 nM; with cell-surface human CD8 [3] it was 0.1 nM; with cell-surface human CD8 [4] it was 0.6 nM; in the assay with cell-surface human CD8 [5] it was 0.15 nM; with cell-surface human CD8 [6] it was 0.13 nM; in the assay with cell-surface human CD8 [7] it was 0.1 nM. In addition, the EC50 came out at 0.1 nM in the assay with cell-surface human CD8 [9] and 0.64 nM with cell-surface human CD8 [10]. Further, the Ka in [8] amounted to 5.4e+08 M⁻¹. Further, the koff in [8] was found to be 0.0012 s⁻¹. Further, the kon in assay [8] amounted to 640000 M⁻¹ s⁻¹. In addition, the “EC50 (read off the curve)” value was roughly 0.1 nM with cell-surface human CD8 [9] and roughly 0.7 nM with cell-surface human CD8 [10].

B2: IAb_M1b_CD8-Df (other)
chain: B1 chain
modifications: Desferoxamine (Df) conjugated to lysine residues
notes: also called Df-labeled minibody
As for B2, in the assay with cell-surface human CD8 [6], a half-maximal response (EC50) required 0.12 nM. Also, in the assay with cell-surface human CD8 [10], it took 0.83 nM to reach a half-maximal effect (EC50) and the “EC50 (read off the curve)” value was roughly 0.9 nM.

B3: IAb_Mb2b_CD8 (other)
chain: EVQLVESGGGLVQPGGSLRLSCAASGFNIKDTYIHFVRQAPGKGLEWIGRIDPANDNTLYASKFQGKATISADTSKNTAYLQMNSLRAEDTAVYYCGRGYGYYVFDHWGQGTLVTVSSGSTSGGGSGGGSGGGGSSDVQITQSPSSLSASVGDRVTITCRTSRSISQYLAWYQQKPGKVPKLLIYSGSTLQSGVPSRFSGSGSGTDFTLTISSLQPEDVATYYCQQHNENPLTFGGGTKVEIKEPKSCDKTHTCPPCGGGSSGGGSGGQPREPQVYTLPPSRDELTKNQVSLTCLVKGFYPSDIAVEWESNGQPENNYKTTPPVLDSDGSFFLYSKLTVDKSRWQQGNVFSCSVMHEALHNHYTQKSLSLSPGK
notes: also called IAb M2b CD8
In turn, B3 displayed an EC50 with cell-surface human CD8 [2] of 0.19 nM. Also, the Kd in [11] stood at 3.6 nM. In addition, the EC50 with cell-surface human CD8 [3] stood at 0.26 nM. Also, the EC50 in the assay with cell-surface human CD8 [5] came out at 0.19 nM. For the same molecule, in [8], the Ka turned out to be 2.6e+08 M⁻¹, the Kd turned out to be 3.9 nM, the koff came to 0.0021 s⁻¹ and the kon was found to be 540000 M⁻¹ s⁻¹. Moreover, in the assay with cell-surface human CD8 [9], the EC50 was 0.26 nM and the “EC50 (read off the curve)” value was roughly 0.3 nM.

B4: OKT8 mAb (antibody, V domains shown)
VH: EVQLQQSGAELVKPGASVKLSCTASGFNIKDTYIHFVRQRPEQGLEWIGRIDPANDNTLYASKFQGKATITADTSSNTAYMHLCSLTSGDTAVYYCGRGYGYYVFDHWGQGTTLTVSS
VL: DVQINQSPSFLAASPGETITINCRTSRSISQYLAWYQEKPGKTNKLLIYSGSTLQSGIPSRFSGSGSGTDFTLTISGLEPEDFAMYYCQQHNENPLTFGAGTKLELK
notes: Parental murine monoclonal antibody (detected with anti-mouse IgG Fc); also called parental OKT8 antibody; parental OKT8
Take B4: in assay [1], the Kd amounted to 1.8 nM. Besides, the EC50 with cell-surface human CD8 [12] amounted to 0.22 nM. This molecule also returned an EC50 in the assay with cell-surface human CD8 [13] of 0.33 nM. Besides, in [14], the Ka was 5.5e+08 M⁻¹, the Kd was determined as 1.8 nM, the koff amounted to 0.001 s⁻¹ and the kon came out at 560000 M⁻¹ s⁻¹. Also, in the assay with cell-surface human CD8 [15], the EC50 came out at 0.33 nM and the “EC50 (read off the curve)” value is roughly 0.3 nM.

B5: IAb_Mb1c_CD8 (other)
chain: DVQITQSPSSLSASVGDRVTITCRTSRSISQYLAWYQQKPGKVPKLLIYSGSTLQSGVPSRFSGSGSGTDFTLTISSLQPEDVATYYCQQHNENPLTFGGGTKVEIKGSTSGGGSGGGSGGGGSSQVQLVQSGAEVKKPGATVKISCKVSGFNIKDTYIHFVQQAPGKGLEWIGRIDPANDNTLYASKFQGKATITADTSTDTAYMELSSLRSGDTAVYYCGRGYGYYVFDHWGQGTLVTVSSEPKSCDKTHTCPPCGGGSSGGGSGGQPREPQVYTLPPSRDELTKNQVSLTCLVKGFYPSDIAVEWESNGQPENNYKTTPPVLDSDGSFFLYSKLTVDKSRWQQGNVFSCSVMHEALHNHYTQKSLSLSPGK
notes: also called variant 1c
Regarding B5, in assay [8], the Ka was 4e+08 M⁻¹, the Kd was 2.5 nM, the koff was 0.0018 s⁻¹ and the kon was found to be 700000 M⁻¹ s⁻¹. In addition, the “EC50 (read off the curve)” value in assay [16] is roughly 0.02 µg/mL.
